# In FireProtDB (doi:10.1111/j.1432-1033.1995.tb20520.x):
# Where “and” joins values, the source holds several entries; their conditions need not be identical. Identical values can stand only once.
# B1: Beta-glucanase wild type, P23904 (protein)
# chain: MKKKSCFTLVTTFAFSLIFSVSALAGSVFWEPLSYFNRSTWEKADGYSNGGVFNCTWRANNVNFTNDGKLKLGLTSSAYNKFDCAEYRSTNIYGYGLYEVSMKPAKNTGIVSSFFTYTGPAHGTQWDEIDIEFLGKDTTKVQFNYYTNGVGGHEKVISLGFDASKGFHTYAFDWQPGYIKWYVDGVLKHTATANIPSTPGKIMMNLWNGTGVDDWLGSYNGANPLYAEYDWVKYTSN
# Details: Paenibacillus macerans, pH 6, Sodium cacodylate 2 mM, reversible: yes, whole UniProt chain shown; for unfolding free energy: 25 °C, GdnHCl; for heat capacity change of unfolding / unfolding enthalpy (van 't Hoff) / Tm / unfolding enthalpy (calorimetric): Thermal
protein,measurement,setting,value
B1,unfolding free energy,CD,10.3 kcal/mol and 9.01 kcal/mol and 8.6 kcal/mol
same,unfolding free energy,"DSC, CaCl2 1 mM",10.4 kcal/mol and 10.5 kcal/mol
same,unfolding free energy,DSC,10.8 kcal/mol and 9.89 kcal/mol and 8.41 kcal/mol
same,heat capacity change of unfolding,"CD, CaCl2 1 mM",2.2 kcal/mol/K and 1.79 kcal/mol/K
same,unfolding enthalpy (van 't Hoff),"CD, CaCl2 1 mM",162 kcal/mol and 169 kcal/mol and 183 kcal/mol
same,Tm,CD,51.2 °C and 47.7 °C and 49.7 °C
same,heat capacity change of unfolding,CD,2.01 kcal/mol/K and 1.6 kcal/mol/K and 1.7 kcal/mol/K
same,unfolding enthalpy (van 't Hoff),CD,154 kcal/mol and 145 kcal/mol and 135 kcal/mol
same,heat capacity change of unfolding,"DSC, CaCl2 1 mM",2.2 kcal/mol/K and 1.79 kcal/mol/K and 2.44 kcal/mol/K
same,unfolding enthalpy (calorimetric),"DSC, CaCl2 1 mM",78.2 kcal/mol and 156 kcal/mol and 87 kcal/mol
same,Tm,DSC,51.2 °C and 49.3 °C and 46.6 °C
same,heat capacity change of unfolding,DSC,2.01 kcal/mol/K and 1.6 kcal/mol/K and 1.7 kcal/mol/K
same,unfolding enthalpy (calorimetric),DSC,161 kcal/mol and 146 kcal/mol and 143 kcal/mol
